# B1: 全人源抗新冠病毒受体结合域单链抗体No4 (purified recombinant scFv from pET-30a(+)/anti-RBD No4 in E. coli Rosetta) (scFv, not shown: small tags and cut ends)
# scFv: RSSCRNPGGALVQPGGSLRLSCETSGFTFSRYWMNWFRQAPGKGLVWVSHISNNGRVTGYADSVKGRFTISRDNAKNILYLQMSGLRAEDTSLYYCARVHNAFCNSVSCVDAFDVWGQGTTVTVSSGGGGSGGGGSGGGGSDIVMTQTPSSLSASVGDRVTITCRASQRINSLLNWYQHKPGKPPKLLIYGASTLQSGVPSRFSGSESGADFTLTISSLQPEDVGTYYCQKYNSAPHTFGQGTRLEIK
# notes: also called 抗RBD单链抗体No4; 抗RBD单链重组抗体No4
# Target: 新型冠状病毒SARS-CoV-2受体结合域RBD重组蛋白 (pET-28a(+)/RBD, E. coli Rosetta) (SARS-CoV-2, UniProt P0DTC2 319-541)
# Experiment: BLI (Fortebio), KD = Kdis/Kon
binder,measurement,value
B1,Kd,1.61 nM

# Reference: patent CN114805559A (UNIV ZHEJIANG, dated 2022)
